Measured values published in the supplement of paper PMC11246515.
± gives the standard deviation of the averaged measurements.

Assay: total protein half-life in vivo (active degradation + dilution); higher = more stable protein
[1] = E. coli NCM3722 delta-clpP delta-lon delta-hslV, growth: N-lim chemostat, doubling time 6 h
[2] = E. coli NCM3722 delta-clpP, growth: N-lim chemostat, doubling time 6 h
[3] = E. coli NCM3722 delta-hslV, growth: N-lim chemostat, doubling time 6 h
[4] = E. coli NCM3722 delta-lon, growth: N-lim chemostat, doubling time 6 h
[5] = E. coli NCM3722 delta-smpB, growth: N-lim chemostat, doubling time 6 h
[6] = wild type E. coli NCM3722, growth: C-lim chemostat, doubling time 3 h
[7] = wild type E. coli NCM3722, growth: C-lim chemostat, doubling time 6 h
[8] = wild type E. coli NCM3722, growth: C-lim chemostat, doubling time 12 h
[9] = wild type E. coli NCM3722, growth: N-lim chemostat, doubling time 6 h
[10] = wild type E. coli NCM3722, growth: N-lim chemostat, doubling time 12 h
[11] = wild type E. coli NCM3722, growth: P-lim chemostat, doubling time 6 h
[12] = wild type E. coli NCM3722, growth: P-lim chemostat, doubling time 12 h

| Sequence | total protein half-life in vivo [1] [h] | total protein half-life in vivo [2] [h] | total protein half-life in vivo [3] [h] | total protein half-life in vivo [4] [h] | total protein half-life in vivo [5] [h] | total protein half-life in vivo [6] [h] | total protein half-life in vivo [7] [h] | total protein half-life in vivo [8] [h] | total protein half-life in vivo [9] [h] | total protein half-life in vivo [10] [h] | total protein half-life in vivo [11] [h] | total protein half-life in vivo [12] [h] |
| --- | --- | --- | --- | --- | --- | --- | --- | --- | --- | --- | --- | --- |
| MTNPQFAGHPFGTTVTAETLRNTFAPLTQWEDKYRQLIMLGKQLPALPDELKAQAKEIAGCENRVWLGYTVAENGKMHFFGDSEGRIVRGLLAVLLTAVEGKTAAELQAQSPLALFDELGLRAQLSASRSQGLNALSEAIIAATKQV [P0AGF2] | 4.97 ± 0.16 | 4.73 ± 0.56 | 4.9 ± 0.33 | 5.38 ± 0.38 | 4.87 ± 0.87 | 3.4 ± 0.066 | 5.18 ± 0.76 | 8.98 ± 0.8 | 4.504 ± 0.012 | 8.14 ± 0.94 | 5.64 ± 0.32 | 11.1 ± 0.35 |
| MLDPNLLRNEPDAVAEKLARRGFKLDVDKLGALEERRKVLQVKTENLQAERNSRSKSIGQAKARGEDIEPLRLEVNKLGEELDAAKAELDALQAEIRDIALTIPNLPADEVPVGKDENDNVEVSRWGTPREFDFEVRDHVTLGEMHSGLDFAAAVKLTGSRFVVMKGQIARMHRALSQFMLDLHTEQHGYSENYVPYLVNQDTLYGTGQLPKFAGDLFHTRPLEEEADTSNYALIPTAEVPLTNLVRGEIIDEDDLPIKMTAHTPCFRSEAGSYGRDTRGLIRMHQFDKVEMVQIVRPEDSMAALEEMTGHAEKVLQLLGLPYRKIILCTGDMGFGACKTYDLEVWIPAQNTYREISSCSNVWDFQARRMQARCRSKSDKKTRLVHTLNGSGLAVGRTLVAVMENYQQADGRIEVPEVLRPYMNGLEYIG [P0A8L1] | 5.7 ± 0.32 | 5.43 ± 0.54 | 5.59 ± 0.06 | 5.511 ± 0.051 | 5.16 ± 0.24 | 3.66 ± 0.21 | 6.43 ± 0.77 | 11.5 ± 0.57 | 5.63 ± 0.29 | 9.239 ± 0.058 | 6.28 ± 0.27 | 13.3 ± 1.1 |
| MTILNHTLGFPRVGLRRELKKAQESYWAGNSTREELLAVGRELRARHWDQQKQAGIDLLPVGDFAWYDHVLTTSLLLGNVPARHQNKDGSVDIDTLFRIGRGRAPTGEPAAAAEMTKWFNTNYHYMVPEFVKGQQFKLTWTQLLDEVDEALALGHKVKPVLLGPVTWLWLGKVKGEQFDRLSLLNDILPVYQQVLAELAKRGIEWVQIDEPALVLELPQAWLDAYKPAYDALQGQVKLLLTTYFEGVTPNLDTITALPVQGLHVDLVHGKDDVAELHKRLPSDWLLSAGLINGRNVWRADLTEKYAQIKDIVGKRDLWVASSCSLLHSPIDLSVETRLDAEVKSWFAFALQKCHELALLRDALNSGDTAALAEWSAPIQARRHSTRVHNPAVEKRLAAITAQDSQRANVYEVRAEAQRARFKLPAWPTTTIGSFPQTTEIRTLRLDFKKGNLDANNYRTGIAEHIKQAIVEQERLGLDVLVHGEAERNDMVEYFGEHLDGFVFTQNGWVQSYGSRCVKPPIVIGDISRPAPITVEWAKYAQSLTDKPVKGMLTGPVTILCWSFPREDVSRETIAKQIALALRDEVADLEAAGIGIIQIDEPALREGLPLRRSDWDAYLQWGVEAFRINAAVAKDDTQIHTHMCYCEFNDIMDSIAALDADVITIETSRSDMELLESFEEFDYPNEIGPGVYDIHSPNVPSVEWIEALLKKAAKRIPAERLWVNPDCGLKTRGWPETRAALANMVQAAQNLRRG | 3.21 ± 0.81 | 2.4 ± 0.23 | 2.34 ± 0.34 | 2.938 ± 0.012 | 2.6 ± 0.53 | 2.48 ± 0.19 | 4.22 ± 0.071 | 6.91 ± 0.33 | 2.56 ± 0.063 | 3.593 ± 0.023 | 4.14 ± 0.21 | 6.88 ± 1.1 |
| MANNTTGFTRIIKAAGYSWKGLRAAWINEAAFRQEGVAVLLAVVIACWLDVDAITRVLLISSVMLVMIVEILNSAIEAVVDRIGSEYHELSGRAKDMGSAAVLIAIIVAVITWCILLWSHFG [P0ABN1] | 6.58 ± 0.097 | 6.7 ± 1.4 | 5.79 ± 0.99 | 6.03 ± 0.49 | 6.13 ± 0.91 | 3.24 ± 0.045 | 6.21 ± 0.12 | 13.3 ± 2.6 | 5.93 ± 0.34 | 13.7 ± 3.1 | 5.54 ± 0.21 | 11.3 ± 0.31 |
| MSIVMQLQDVAESTRLGPLSGEVRAGEILHLVGPNGAGKSTLLARMAGMTSGKGSIQFAGQPLEAWSATKLALHRAYLSQQQTPPFATPVWHYLTLHQHDKTRTELLNDVAGALALDDKLGRSTNQLSGGEWQRVRLAAVVLQITPQANPAGQLLLLDEPMNSLDVAQQSALDKILSALCQQGLAIVMSSHDLNHTLRHAHRAWLLKGGKMLASGRREEVLTPPNLAQAYGMNFRRLDIEGHRMLISTI | 4.65 ± 0.84 | 2.32 ± 0.27 | 3.72 | 2.59 | 2.37 ± 0.03 | 2.13 ± 0.1 | 3.49 ± 0.41 | 4.65 | 3.11 ± 0.33 |  | 4.37 | 6.509 ± 0.027 |
| MFNEVHSIHGHTLLLITKSSLQATALLQHLKQSLAITGKLHNIQRSLDDISSGSIILLDMMEADKKLIHYWQDTLSRKNNNIKILLLNTPEDYPYRDIENWPHINGVFYSMEDQERVVNGLQGVLRGECYFTQKLASYLITHSGNYRYNSTESALLTHREKEILNKLRIGASNNEIARSLFISENTVKTHLYNLFKKIAVKNRTQAVSWANDNLRR |  | 1.72 ± 0.18 | 0.584 |  | 0.772 |  |  |  | 0.875 | 1.84 |  | 1.48 ± 0.36 |
| MCGIVGAIAQRDVAEILLEGLRRLEYRGYDSAGLAVVDAEGHMTRLRRLGKVQMLAQAAEEHPLHGGTGIAHTRWATHGEPSEVNAHPHVSEHIVVVHNGIIENHEPLREELKARGYTFVSETDTEVIAHLVNWELKQGGTLREAVLRAIPQLRGAYGTVIMDSRHPDTLLAARSGSPLVIGLGMGENFIASDQLALLPVTRRFIFLEEGDIAEITRRSVNIFDKTGAEVKRQDIESNLQYDAGDKGIYRHYMQKEIYEQPNAIKNTLTGRISHGQVDLSELGPNADELLSKVEHIQILACGTSYNSGMVSRYWFESLAGIPCDVEIASEFRYRKSAVRRNSLMITLSQSGETADTLAGLRLSKELGYLGSLAICNVPGSSLVRESDLALMTNAGTEIGVASTKAFTTQLTVLLMLVAKLSRLKGLDASIEHDIVHGLQALPSRIEQMLSQDKRIEALAEDFSDKHHALFLGRGDQYPIALEGALKLKEISYIHAEAYAAGELKHGPLALIDADMPVIVVAPNNELLEKLKSNIEEVRARGGQLYVFADQDAGFVSSDNMHIIEMPHVEEVIAPIFYTVPLQLLAYHVALIKGTDVDQPRNLAKSVTVE | 5.12 ± 0.77 | 5.07 ± 1.3 | 4 ± 0.11 | 4.01 ± 0.15 | 3.98 ± 0.33 | 3.14 ± 0.23 | 5.37 ± 0.3 | 9.64 ± 0.98 | 4.14 ± 0.067 | 6.35 ± 0.37 | 5.8 ± 0.14 | 11.3 ± 0.96 |
